Results taken from patent publication US10251952B2, “Humanized anti-tau(pS422) antibody brain shuttles and use thereof” (Hoffmann-La Roche Inc., priority 2014, dated 2019).
Square brackets hold non-standard residues; d marks the D form. NMeR = CN[C@@H](CCCNC(=N)N)C(=O)O; Pqa = not defined here

Legend:
Experiment in all cases: effect on the Y2Receptor family
NPY5R = molecular target: T1, NPY5R (Homo sapiens, UniProt Q15761)
T1 sequence (Q15761 1-445): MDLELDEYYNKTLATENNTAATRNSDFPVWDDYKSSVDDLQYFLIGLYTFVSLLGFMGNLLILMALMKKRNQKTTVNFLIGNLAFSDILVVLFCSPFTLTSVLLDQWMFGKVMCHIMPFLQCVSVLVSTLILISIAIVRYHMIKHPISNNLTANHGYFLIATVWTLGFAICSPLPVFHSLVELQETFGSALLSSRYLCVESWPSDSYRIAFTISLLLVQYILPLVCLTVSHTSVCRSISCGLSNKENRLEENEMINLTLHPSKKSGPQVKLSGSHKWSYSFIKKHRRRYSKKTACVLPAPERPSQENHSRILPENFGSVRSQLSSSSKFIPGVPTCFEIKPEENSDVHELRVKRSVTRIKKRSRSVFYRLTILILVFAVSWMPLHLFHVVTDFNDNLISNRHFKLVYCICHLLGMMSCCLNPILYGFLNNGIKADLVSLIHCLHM

NPY1R = molecular target: T2, NPY1R (Homo sapiens, UniProt P25929)
T2 sequence (P25929 1-384): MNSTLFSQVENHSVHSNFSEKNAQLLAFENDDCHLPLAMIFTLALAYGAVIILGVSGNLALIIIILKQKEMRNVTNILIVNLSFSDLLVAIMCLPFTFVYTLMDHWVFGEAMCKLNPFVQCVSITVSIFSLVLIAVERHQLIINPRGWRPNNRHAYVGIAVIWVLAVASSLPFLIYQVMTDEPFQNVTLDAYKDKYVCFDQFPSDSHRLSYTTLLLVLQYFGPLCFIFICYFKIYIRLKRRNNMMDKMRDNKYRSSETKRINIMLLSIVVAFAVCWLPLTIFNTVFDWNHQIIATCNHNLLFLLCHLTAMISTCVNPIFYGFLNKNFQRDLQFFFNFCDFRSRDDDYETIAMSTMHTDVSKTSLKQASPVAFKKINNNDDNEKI

NPY2R = molecular target: T3, NPY2R (Homo sapiens, UniProt P49146)
T3 sequence (P49146 1-381): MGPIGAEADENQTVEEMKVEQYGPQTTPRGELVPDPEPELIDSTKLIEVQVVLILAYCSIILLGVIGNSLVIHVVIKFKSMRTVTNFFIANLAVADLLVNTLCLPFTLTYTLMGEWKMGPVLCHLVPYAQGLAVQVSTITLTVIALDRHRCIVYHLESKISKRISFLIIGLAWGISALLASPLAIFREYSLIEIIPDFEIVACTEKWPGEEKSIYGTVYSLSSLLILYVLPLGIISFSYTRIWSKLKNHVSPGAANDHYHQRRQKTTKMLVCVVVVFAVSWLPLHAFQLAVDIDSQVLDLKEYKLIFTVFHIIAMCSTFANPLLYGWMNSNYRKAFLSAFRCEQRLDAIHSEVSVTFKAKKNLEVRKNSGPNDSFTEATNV

NPY4R = NPY4R (Homo sapiens, UniProt P50391)
Sequence of NPY4R (P50391 whole entry, species assumed): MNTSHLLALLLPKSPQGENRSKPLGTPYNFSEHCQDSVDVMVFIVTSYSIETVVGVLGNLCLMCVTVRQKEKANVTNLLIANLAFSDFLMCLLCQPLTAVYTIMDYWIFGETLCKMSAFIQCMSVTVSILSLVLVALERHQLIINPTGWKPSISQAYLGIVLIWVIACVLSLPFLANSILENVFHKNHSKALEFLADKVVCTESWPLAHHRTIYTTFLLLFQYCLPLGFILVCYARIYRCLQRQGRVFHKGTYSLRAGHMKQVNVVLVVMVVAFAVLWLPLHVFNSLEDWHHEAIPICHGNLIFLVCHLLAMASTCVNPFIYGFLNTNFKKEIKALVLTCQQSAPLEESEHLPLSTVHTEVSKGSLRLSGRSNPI

**Q.** How did the NPY5R (NPY5R) turn out when “Ac-Ile-Lys-Pqa-Arg-His-Tyr-Leu-Asn-Trp-Val-Thr-Arg-Gln-(NMe)-Arg-Try-NH2 * 4 HOAc (Ac-IK[Pqa]RHYLNWVTRQ[NMeR]Y-NH2; reading uncertain; also: salt: 4 HOAc, printed as Ac-Ile-Lys-Pqa-Arg-His-Tyr-Leu-Asn-Trp-Val-Thr-Arg-Gln-(NMe)-Arg-Try-NH2 * 4 HOAc) [reference compound]” was run?
**A.** inactive

**Q.** What about the NPY1R (NPY1R) of the same substance?
**A.** inactive

**Q.** And the NPY2R (NPY2R)?
**A.** 1.0 nM

**Q.** What about the NPY4R (NPY4R) of the same substance?
**A.** inactive
